Patent US20240392004A1 (IMMUNOWAKE, published 2024)

Columns and labels:
Assay in all cases: cell-based or functional assay
[1] = target: human PD-1 on cells (HEK-PD-1 reporter cells; activated PBMC) (human, UniProt Q15116 25-288)
[2] = target: human IL-12 receptor complex (IL-12Rβ1 and IL-12Rβ2) (human, UniProt P42701 24-662; Q99665 24-862)
[3] = target: T1, IFN-γ receptor (IFNGR1 and IFNGR2) (UniProt P15260 18-489; P38484 22-337, limits assumed)
T1 sequence (looked up) 1: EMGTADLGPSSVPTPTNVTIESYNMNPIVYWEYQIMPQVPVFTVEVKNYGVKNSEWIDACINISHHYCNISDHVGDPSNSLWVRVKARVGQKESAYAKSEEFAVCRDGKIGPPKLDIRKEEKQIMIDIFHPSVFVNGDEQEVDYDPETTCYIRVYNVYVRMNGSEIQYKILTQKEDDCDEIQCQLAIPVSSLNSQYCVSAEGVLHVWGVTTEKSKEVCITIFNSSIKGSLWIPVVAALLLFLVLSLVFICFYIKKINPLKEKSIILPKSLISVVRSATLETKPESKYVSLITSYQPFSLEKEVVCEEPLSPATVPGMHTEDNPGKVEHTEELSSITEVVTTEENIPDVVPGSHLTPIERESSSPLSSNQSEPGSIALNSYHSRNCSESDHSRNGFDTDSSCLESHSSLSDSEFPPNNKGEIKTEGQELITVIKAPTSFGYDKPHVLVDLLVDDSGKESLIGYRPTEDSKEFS
T1 sequence (looked up) 2: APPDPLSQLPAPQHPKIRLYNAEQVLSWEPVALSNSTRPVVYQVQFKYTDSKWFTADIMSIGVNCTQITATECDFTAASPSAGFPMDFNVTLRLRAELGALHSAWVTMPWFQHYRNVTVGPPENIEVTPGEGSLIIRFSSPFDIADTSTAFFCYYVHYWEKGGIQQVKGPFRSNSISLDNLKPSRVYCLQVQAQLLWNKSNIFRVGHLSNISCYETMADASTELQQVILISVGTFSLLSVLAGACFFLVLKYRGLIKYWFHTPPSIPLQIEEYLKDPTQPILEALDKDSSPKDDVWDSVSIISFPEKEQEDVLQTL

human PD-1 on cells (HEK-PD-1 reporter cells; activated PBMC), sequence (Q15116 25-288): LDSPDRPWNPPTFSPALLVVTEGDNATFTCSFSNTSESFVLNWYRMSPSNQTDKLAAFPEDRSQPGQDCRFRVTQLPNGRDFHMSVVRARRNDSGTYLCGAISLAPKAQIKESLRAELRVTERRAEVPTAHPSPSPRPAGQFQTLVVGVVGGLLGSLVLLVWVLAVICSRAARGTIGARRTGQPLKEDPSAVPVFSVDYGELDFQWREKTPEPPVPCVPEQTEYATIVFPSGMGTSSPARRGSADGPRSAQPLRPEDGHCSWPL
human IL-12 receptor complex (IL-12Rβ1 and IL-12Rβ2), sequence (Q99665 24-862, chain 2 of 2, other chains not shown): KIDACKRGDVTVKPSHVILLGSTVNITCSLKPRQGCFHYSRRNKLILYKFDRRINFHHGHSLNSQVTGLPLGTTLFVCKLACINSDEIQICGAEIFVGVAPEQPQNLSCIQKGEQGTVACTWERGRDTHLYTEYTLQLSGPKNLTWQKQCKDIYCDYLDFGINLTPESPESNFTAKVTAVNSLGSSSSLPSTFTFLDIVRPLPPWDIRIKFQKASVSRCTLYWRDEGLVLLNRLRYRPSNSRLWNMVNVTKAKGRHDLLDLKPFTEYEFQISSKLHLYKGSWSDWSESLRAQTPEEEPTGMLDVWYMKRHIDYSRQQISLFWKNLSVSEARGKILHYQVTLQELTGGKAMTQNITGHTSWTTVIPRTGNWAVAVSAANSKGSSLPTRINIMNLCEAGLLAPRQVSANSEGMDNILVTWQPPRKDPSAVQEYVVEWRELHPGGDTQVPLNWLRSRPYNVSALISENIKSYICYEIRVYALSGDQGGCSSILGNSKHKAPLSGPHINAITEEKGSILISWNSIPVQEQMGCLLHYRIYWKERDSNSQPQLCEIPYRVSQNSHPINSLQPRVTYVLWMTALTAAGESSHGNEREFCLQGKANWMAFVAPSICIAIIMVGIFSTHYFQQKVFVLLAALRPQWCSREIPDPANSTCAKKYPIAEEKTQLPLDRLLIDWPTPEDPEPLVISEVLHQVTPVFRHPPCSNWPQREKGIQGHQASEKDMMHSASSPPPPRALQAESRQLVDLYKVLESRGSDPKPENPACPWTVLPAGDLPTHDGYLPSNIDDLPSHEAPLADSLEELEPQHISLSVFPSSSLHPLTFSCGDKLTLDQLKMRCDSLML

Row | Binder | IFN-γ signal transduction, HEK-IFN-γ-PD-1 [1] | IL-12 signal transduction, HEK-IL-12-PD-1 [1] | IL-12 signal transduction, HEK-IL-12 [2] | IFN-γ signal transduction, HEK-IFN-γ [3]
1 | IFN-γ(A23V/A23V)/PD-L1(mut2)-Fc (Fc fusion) chain 1: FTVTVPKDLYVVEYGSNMTIECKFPVEKQLDLAALQVYWMMEDKNIIQFVHGEEDLKVQHSSYRQRARLLKDQLSLGNAALQITDVKLQDAGVYTCLIAYKGADYKRITVKVNAPYNKINQRILVVDPVTSEHELTCQAEGYPKAEVIWTSSDHQVLSGKTTTTNSKREEKLFNVTSTLRINTTTNEIFYCTFRRLDPEENHTAELVIPELPLAHPPNERGGGGSGGGDKTHTCPPCPAPEDEGGPSVFLFPPKPKDTLMISRTPEVTCVVVDVSHEDPEVKFNWYVDGVEVHNAKTKPREEQYNSTYRVVSVLTVLHQDWLNGKEYKCKVSNKALPAPIEKTISKAKGQPREPQVYVYPPSREEMTKNQVSLTCLVKGFYPSDIAVEWESNGQPENNYKTTPPVLDEDGSFALVSKLTVDKSRWQQGNVFSCSVMHEALHNHYTQKSLSLSPGK chain 2: FTVTVPKDLYVVEYGSNMTIECKFPVEKQLDLAALQVYWMMEDKNIIQFVHGEEDLKVQHSSYRQRARLLKDQLSLGNAALQITDVKLQDAGVYTCLIAYKGADYKRITVKVNAPYNKINQRILVVDPVTSEHELTCQAEGYPKAEVIWTSSDHQVLSGKTTTTNSKREEKLFNVTSTLRINTTTNEIFYCTFRRLDPEENHTAELVIPELPLAHPPNERGGGSGQDPYVKEAENLKKYFNAGHSDVVDNGTLFLGILKNWKEESDRKIMQSQIVSFYFKLFKNFKDDQSIQKSVETIKEDMNVKFFNSNKKKRDDFEKLTNYSVTDLNVQRKAIHELIQVMAELSPAAKTGKRKRSQMLFRGGGGSGGGGSGGGGSGGGGSQDPYVKEAENLKKYFNAGHSDVVDNGTLFLGILKNWKEESDRKIMQSQIVSFYFKLFKNFKDDQSIQKSVETIKEDMNVKFFNSNKKKRDDFEKLTNYSVTDLNVQRKAIHELIQVMAELSPAAKTGKRKRSQMLFRGGGGGSGGGDKTHTCPPCPAPEKKGGPSVFLFPPKPKDTLMISRTPEVTCVVVDVSHEDPEVKFNWYVDGVEVHNAKTKPREEQYNSTYRVVSVLTVLHQDWLNGKEYKCKVSNKALPAPIEKTISKAKGQPREPQVYVLPPSREEMTKNQVSLLCLVKGFYPSDIAVEWESNGQPENRYMTWPPVLDSDGSFFLYSKLTVDKSRWQQGNVFSCSVMHEALHNHYTQKSLSLSPGK | 44% | < 0.2% | < 0.2% | < 0.1%
2 | IL-12(E59A/F60A)/IFN-γ(A23V/A23V)/PD-L1(mut2)-Fc (Fc fusion) chain 1: FTVTVPKDLYVVEYGSNMTIECKFPVEKQLDLAALQVYWMMEDKNIIQFVHGEEDLKVQHSSYRQRARLLKDQLSLGNAALQITDVKLQDAGVYTCLIAYKGADYKRITVKVNAPYNKINQRILVVDPVTSEHELTCQAEGYPKAEVIWTSSDHQVLSGKTTTTNSKREEKLFNVTSTLRINTTTNEIFYCTFRRLDPEENHTAELVIPELPLAHPPNERGGGGSGGGIWELKKDVYVVELDWYPDAPGEMVVLTCDTPEEDGITWTLDQSSEVLGSGKTLTIQVKAAGDAGQYTCHKGGEVLSHSLLLLHKKEDGIWSTDILKDQKEPKNKTFLRCEAKNYSGRFTCWWLTTISTDLTFSVKSSRGSSDPQGVTCGAATLSAERVRGDNKEYEYSVECQEDSACPAAEESLPIEVMVDAVHKLKYENYTSSFFIRDIIKPDPPKNLQLKPLKNSRQVEVSWEYPDTWSTPHSYFSLTFCVQVQGKSKREKKDRVFTDKTSATVICRKNASISVRAQDRYYSSSWSEWASVPCSGGGGSGGGSGGGGSRNLPVATPDPGMFPCLHHSQNLLRAVSNMLQKARQTLEFYPCTSEEIDHEDITKDKTSTVEACLPLELTKNESCLNSRETSFITNGSCLASRKTSFMMALCLSSIYEDLKMYQVEFKTMNAKLLMDPKRQIFLDQNMLAVIDELMQALNFNSETVPQKSSLEEPDFYKTKIKLCILLHAFRIRAVTIDRVMSYLNASGGGGSGGGDKTHTCPPCPAPEDEGGPSVFLFPPKPKDTLMISRTPEVTCVVVDVSHEDPEVKFNWYVDGVEVHNAKTKPREEQYNSTYRVVSVLTVLHQDWLNGKEYKCKVSNKALPAPIEKTISKAKGQPREPQVYVYPPSREEMTKNQVSLTCLVKGFYPSDIAVEWESNGQPENNYKTTPPVLDEDGSFALVSKLTVDKSRWQQGNVFSCSVMHEALHNHYTQKSLSLSPGK chain 2: FTVTVPKDLYVVEYGSNMTIECKFPVEKQLDLAALQVYWMMEDKNIIQFVHGEEDLKVQHSSYRQRARLLKDQLSLGNAALQITDVKLQDAGVYTCLIAYKGADYKRITVKVNAPYNKINQRILVVDPVTSEHELTCQAEGYPKAEVIWTSSDHQVLSGKTTTTNSKREEKLFNVTSTLRINTTTNEIFYCTFRRLDPEENHTAELVIPELPLAHPPNERGGGSGQDPYVKEAENLKKYFNAGHSDVVDNGTLFLGILKNWKEESDRKIMQSQIVSFYFKLFKNFKDDQSIQKSVETIKEDMNVKFFNSNKKKRDDFEKLTNYSVTDLNVQRKAIHELIQVMAELSPAAKTGKRKRSQMLFRGGGGSGGGGSGGGGSGGGGSQDPYVKEAENLKKYFNAGHSDVVDNGTLFLGILKNWKEESDRKIMQSQIVSFYFKLFKNFKDDQSIQKSVETIKEDMNVKFFNSNKKKRDDFEKLTNYSVTDLNVQRKAIHELIQVMAELSPAAKTGKRKRSQMLFRGGGGGSGGGDKTHTCPPCPAPEKKGGPSVFLFPPKPKDTLMISRTPEVTCVVVDVSHEDPEVKFNWYVDGVEVHNAKTKPREEQYNSTYRVVSVLTVLHQDWLNGKEYKCKVSNKALPAPIEKTISKAKGQPREPQVYVLPPSREEMTKNQVSLLCLVKGFYPSDIAVEWESNGQPENRYMTWPPVLDSDGSFFLYSKLTVDKSRWQQGNVFSCSVMHEALHNHYTQKSLSLSPGK | 39% | 32% | < 0.2% | < 0.1%
3 | IL-12(E59A/F60A)/IFN-γ(A23V/A23V)/PD-L1(mut7)-Fc (Fc fusion) chain 1: FTVTVPKDLYVVEYGSNMTIECKFPVEKQLDLAALQVYWMMEDKNIIQFVHGEEDLKVQHSSYRQRARLLKDQLSLGNAALQITDVKLQDAGVYTCLIAYGGADYKRITVKVNAPYNKINQRILVVDPVTSEHELTCQAEGYPKAEVIWTSSDHQVLSGKTTTTNSKREEKLFNVTSTLRINTTTNEIFYCTFRRLDPEENHTAELVIPELPLAHPPNERGGGGSGGGIWELKKDVYVVELDWYPDAPGEMVVLTCDTPEEDGITWTLDQSSEVLGSGKTLTIQVKAAGDAGQYTCHKGGEVLSHSLLLLHKKEDGIWSTDILKDQKEPKNKTFLRCEAKNYSGRFTCWWLTTISTDLTFSVKSSRGSSDPQGVTCGAATLSAERVRGDNKEYEYSVECQEDSACPAAEESLPIEVMVDAVHKLKYENYTSSFFIRDIIKPDPPKNLQLKPLKNSRQVEVSWEYPDTWSTPHSYFSLTFCVQVQGKSKREKKDRVFTDKTSATVICRKNASISVRAQDRYYSSSWSEWASVPCSGGGGSGGGSGGGGSRNLPVATPDPGMFPCLHHSQNLLRAVSNMLQKARQTLEFYPCTSEEIDHEDITKDKTSTVEACLPLELTKNESCLNSRETSFITNGSCLASRKTSFMMALCLSSIYEDLKMYQVEFKTMNAKLLMDPKRQIFLDQNMLAVIDELMQALNFNSETVPQKSSLEEPDFYKTKIKLCILLHAFRIRAVTIDRVMSYLNASGGGGSGGGDKTHTCPPCPAPEDEGGPSVFLFPPKPKDTLMISRTPEVTCVVVDVSHEDPEVKFNWYVDGVEVHNAKTKPREEQYNSTYRVVSVLTVLHQDWLNGKEYKCKVSNKALPAPIEKTISKAKGQPREPQVYVYPPSREEMTKNQVSLTCLVKGFYPSDIAVEWESNGQPENNYKTTPPVLDEDGSFALVSKLTVDKSRWQQGNVFSCSVMHEALHNHYTQKSLSLSPGK chain 2: FTVTVPKDLYVVEYGSNMTIECKFPVEKQLDLAALQVYWMMEDKNIIQFVHGEEDLKVQHSSYRQRARLLKDQLSLGNAALQITDVKLQDAGVYTCLIAYGGADYKRITVKVNAPYNKINQRILVVDPVTSEHELTCQAEGYPKAEVIWTSSDHQVLSGKTTTTNSKREEKLFNVTSTLRINTTTNEIFYCTFRRLDPEENHTAELVIPELPLAHPPNERGGGSGQDPYVKEAENLKKYFNAGHSDVVDNGTLFLGILKNWKEESDRKIMQSQIVSFYFKLFKNFKDDQSIQKSVETIKEDMNVKFFNSNKKKRDDFEKLTNYSVTDLNVQRKAIHELIQVMAELSPAAKTGKRKRSQMLFRGGGGSGGGGSGGGGSGGGGSQDPYVKEAENLKKYFNAGHSDVVDNGTLFLGILKNWKEESDRKIMQSQIVSFYFKLFKNFKDDQSIQKSVETIKEDMNVKFFNSNKKKRDDFEKLTNYSVTDLNVQRKAIHELIQVMAELSPAAKTGKRKRSQMLFRGGGGGSGGGDKTHTCPPCPAPEKKGGPSVFLFPPKPKDTLMISRTPEVTCVVVDVSHEDPEVKFNWYVDGVEVHNAKTKPREEQYNSTYRVVSVLTVLHQDWLNGKEYKCKVSNKALPAPIEKTISKAKGQPREPQVYVLPPSREEMTKNQVSLLCLVKGFYPSDIAVEWESNGQPENRYMTWPPVLDSDGSFFLYSKLTVDKSRWQQGNVFSCSVMHEALHNHYTQKSLSLSPGK | 45% | 43% | < 0.2% | < 0.1%
